The target in experiment [1] is αβ-tubulin heterodimer from bovine brain (bovine) (UniProt Q6B856). Briefly: not stated; Kif2A-MD with tubulin, shown in Supplementary Figure 6; method not given.
Experiment [2] has the same target. Briefly: SEC-SAXS; in-line Superdex 200 10/300 GL, 20 mM HEPES, 150 mM NaCl, 1 mM MgCl2, pH 7.2; 25 μM tubulin, 27 μM DARPin, 20 μM Kif2A-NM, 0.1 mM AMPPNP; 270 kDa peak; 22 °C.
In a further experiment the target is T1, Kif2A-MD (Homo sapiens, UniProt O00139).
T1 construct: motor domain without most of the neck, residues 203-554, pGex-6P1, PreScission-cleaved GST fusion; 1:1 complex with tubulin; with Tubulin alpha chain (Bos taurus, brain); Tubulin beta chain (Bos taurus, brain)
T1 sequence (O00139 203-554): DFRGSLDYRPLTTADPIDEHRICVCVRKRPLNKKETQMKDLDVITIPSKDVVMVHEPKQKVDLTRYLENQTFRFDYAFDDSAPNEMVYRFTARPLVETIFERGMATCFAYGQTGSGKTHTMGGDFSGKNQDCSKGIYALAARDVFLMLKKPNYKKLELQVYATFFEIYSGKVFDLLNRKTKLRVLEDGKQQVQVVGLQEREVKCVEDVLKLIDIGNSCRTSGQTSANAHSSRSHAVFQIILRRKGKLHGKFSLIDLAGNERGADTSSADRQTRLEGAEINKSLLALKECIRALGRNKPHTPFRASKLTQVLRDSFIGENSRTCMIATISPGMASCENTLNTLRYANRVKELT
T1 sequence (P81947 whole entry partner, the tested form may be a part): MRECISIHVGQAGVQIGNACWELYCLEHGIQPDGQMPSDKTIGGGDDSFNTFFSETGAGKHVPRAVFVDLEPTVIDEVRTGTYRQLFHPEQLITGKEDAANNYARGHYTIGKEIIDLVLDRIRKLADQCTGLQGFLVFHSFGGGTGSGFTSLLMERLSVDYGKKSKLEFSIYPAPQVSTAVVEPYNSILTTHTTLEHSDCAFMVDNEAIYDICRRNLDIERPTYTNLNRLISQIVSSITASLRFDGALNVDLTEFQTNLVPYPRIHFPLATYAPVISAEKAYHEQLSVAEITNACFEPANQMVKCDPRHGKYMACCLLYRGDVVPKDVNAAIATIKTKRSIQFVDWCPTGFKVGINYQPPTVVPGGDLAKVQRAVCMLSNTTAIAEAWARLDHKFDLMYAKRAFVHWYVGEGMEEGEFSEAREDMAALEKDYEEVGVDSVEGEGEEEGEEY
T1 sequence (Q6B856 whole entry partner, the tested form may be a part): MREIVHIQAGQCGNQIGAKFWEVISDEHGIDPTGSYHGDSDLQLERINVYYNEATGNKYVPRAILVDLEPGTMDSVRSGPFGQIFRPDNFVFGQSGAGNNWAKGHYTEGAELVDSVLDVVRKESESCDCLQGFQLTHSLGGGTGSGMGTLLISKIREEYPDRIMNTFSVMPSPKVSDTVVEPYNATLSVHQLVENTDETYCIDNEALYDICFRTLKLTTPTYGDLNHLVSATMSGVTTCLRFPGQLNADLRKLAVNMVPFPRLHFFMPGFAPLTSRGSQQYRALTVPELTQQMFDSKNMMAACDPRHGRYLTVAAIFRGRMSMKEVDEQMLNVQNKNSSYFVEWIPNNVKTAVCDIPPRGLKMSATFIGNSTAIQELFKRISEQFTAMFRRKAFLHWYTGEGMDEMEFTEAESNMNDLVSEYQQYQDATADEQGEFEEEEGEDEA
The experiment can be described thus: malachite green phosphate release ATPase assay. As to conditions: tubulin- or microtubule-stimulated; BRB80-based buffer pH 6.8, 1 mM MgCl2, 75 mM KCl; without DARPin. Type of experiment: biochemical.

For the next experiment, the target named is T2, Kif2A-NM (Homo sapiens, UniProt O00139).
T2 construct: neck plus motor domain, residues 153-553, monomer, 48 kDa, His-tagged, from E. coli BL21(DE3) pLysS; studied with bovine brain tubulin (1:2 complex), crystal also holds DARPin D1; full length 706 residues; with Tubulin alpha chain (Bos taurus, brain); Tubulin beta chain (Bos taurus, brain)
T2 sequence (O00139 153-553): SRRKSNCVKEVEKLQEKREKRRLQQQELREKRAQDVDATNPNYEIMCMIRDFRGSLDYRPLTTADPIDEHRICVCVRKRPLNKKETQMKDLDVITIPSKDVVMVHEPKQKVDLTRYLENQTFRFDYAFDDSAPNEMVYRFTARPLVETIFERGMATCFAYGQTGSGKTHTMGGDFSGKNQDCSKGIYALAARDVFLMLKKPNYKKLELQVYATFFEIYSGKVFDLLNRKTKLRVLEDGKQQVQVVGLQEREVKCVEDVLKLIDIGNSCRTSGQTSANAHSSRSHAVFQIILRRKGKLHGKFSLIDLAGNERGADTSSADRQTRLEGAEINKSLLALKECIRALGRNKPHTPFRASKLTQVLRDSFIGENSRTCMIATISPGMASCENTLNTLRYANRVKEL
T2 sequence (P81947 whole entry partner, the tested form may be a part): as the sequence (P81947 whole entry partner, the tested form may be a part) above
T2 sequence (Q6B856 whole entry partner, the tested form may be a part): as the sequence (Q6B856 whole entry partner, the tested form may be a part) above
The experiment can be described thus: malachite green phosphate release ATPase assay. Type of experiment: biochemical. As to conditions: tubulin- or microtubule-stimulated; BRB80-based buffer pH 6.8, 1 mM MgCl2, 75 mM KCl; without DARPin.

Sequence of Kif2A-NM (human Kif2A neck plus motor domain, residues 153–553) (O00139 153-553): as the sequence (O00139 153-553) above
Sequence of Kif2A-MD (human Kif2A motor domain without the neck, residues 203–554) (O00139 203-554): as the sequence (O00139 203-554) above

For the compound “Kif2A-MD (human Kif2A motor domain without the neck, residues 203–554) (from UniProt O00139 203-554) (domain or fragment)”, in experiment [1], the stoichiometry N (Kif2A-MD per tubulin dimer (1:1)) came out at 1.
“Kif2A-NM (human Kif2A neck plus motor domain, residues 153–553) (from UniProt O00139 153-553) (domain or fragment)”: in experiment [2], the stoichiometry N (αβ-tubulin dimers per Kif2A-NM) turned out to be 2.
Consider `Nc1ncnc2c1ncn2[C@@H]1O[C@H](COP(=O)(O)OP(=O)(O)OP(=O)(O)O)[C@@H](O)[C@H]1O` [ATP], for which the ATP turnover rate result is “ATP turnover rates of Kif2A-NM (orange) and Kif2A-MD (gray) in the presence of tubulin” at Kif2A-MD; “ATP turnover rates of Kif2A-NM (orange) and Kif2A-MD (gray) in the presence of tubulin” at Kif2A-NM.

Source of the values: article PMC6035175, “Ternary complex of Kif2A-bound tandem tubulin heterodimers represents a kinesin-13-mediated microtubule depolymerization reaction intermediate” (Nature Communications, 2018).
